Laboratory results published in patent US20080015165A1, “NOVEL POLYPEPTIDE” (KYOWA HAKKO KOGYO CO., LTD., priority 1998, published 2008).

Key:
[1] = Enzyme activity for monofucosylpoly-N-acetyllactosamine sugar chain P1, Namalwa cell extract, HPLC; type: biochemical; conditions: relative activity with the activity for P1 assumed to be 1
Method: (§1) Samples were allowed to react in 20 μl of an assay solution [50 mM cacodylate (pH 6.8), 5 mM ATP, 10 mM L-fucose, 75 μM […] (manufactured by SIGMA), 25 mM MnCl2, 15 μM fluorescently labeled sugar chain substrate, 6 μl of the cell lysate above] at 37° C. for 2 hours, followed by treatment at 100° C. for 3 minutes to stop the reaction. Next 200 μl of water was added to the samples, and the supernatant was obtained by centrifugation at 10,000×g for 5 minutes. Using an aliquot of the supernatant (10 μl), products were analyzed by HPLC under the following conditions.
(§2) HPLC: • Column—TSK-gel ODS-80TsQA column (4.6×250 mm; TOSOH CORPORATION) • Eluate—0.02 M ammonium acetate (pH 4.0) containing 7% methanol • Elution temperature—50° C. • Flow rate—1.0 ml/min. • Detection—Fluorescence spectrum photometer FB-920 (manufactured by JASCO Corporation) (excitation wavelength: 330 nm, radiation wavelength: 420 nm)
The enzymatic activities of Fuc-TIV, Fuc-TVI and Fuc-TIX were measured using the product P1 or P2 as a substrate in addition to the above substrate (S).

[2] = Enzyme activity for a poly-N-acetyllactosamine sugar chain, Namalwa cell extract, HPLC; type: biochemical
From the text: Using a poly-N-acetyllactosamine sugar chain, it was examined that to which GlcNAc in the sugar chains, human Fuc-TIX and 5 types of human α1,3-fucosyltransferase (Fuc-TIII, Fuc-TIV, Fuc-TV, Fuc-TVI, and Fuc-TVII) that had been cloned so far transferred fucose.
Control plasmid (pAMo) and the human Fuc-TIX expression plasmid pAMo-FT9 were introduced into Namalwa cells according to the method shown in Example 1 (3), thereby obtaining stable transformants.
Namalwa cells expressing each of the other 5 types of human α1,3-fucosyltransferases (Fuc-TIII, Fuc-TIV, Fuc-TV, Fuc-TVI, and Fuc-TVII) were obtained according to the previous report (Glycoconjugate J., 13, 802-812, Biochem. Biophys. Res. Commun., 237, 131-137, 1997).
The resultant transformants (about 1×10^7) were collected in microtubes (1.5 ml, manufactured by Eppendolf), followed by centrifugation at 550×g for 7 minutes to collect the cells.
The collected cells were washed with 0.9 ml of PBS. The washed cells were suspended in 100 μl of a solution which consisted of 20 mM HEPES (pH 7.2) and 1% TrironX-100, then allowed to stand at 4° C. for 10 minutes. Subsequently the cells were disrupted using a ultrasonicator (Bioruptor; manufactured by COSMO BIO CO., LTD.)
After disruption of the cells, each supernatant was obtained by centrifugation at 550×g for 7 minutes and used as an enzyme sample. A poly-N-acetyllactosamine sugar chain (Galβ1-4GlcNAcβ1-3Galβ1-4GlcNAcβ1-3Galβ1-4GlcNAc) consisting of 6 sugars was fluorescently labeled with 2-aminobenzamide to make a sugar chain (Galβ1-4GlcNAcβ1-3Galβ1-4GlcNAcβ1-3Galβ1-4GlcNAc-2AB: abbreviated as S in FIGS. 13 and 15, and table 3), which was used as a substrate
Florescent labeling was performed using a Signal™ 2-AB glycan labeling kit (manufactured by Oxford GlycoScience). A poly-N-acetyllactosamine sugar chain (Galβ1-4GlcNAcβ1-3Galβ1-4GlcNAcβ1-3Galβ1-4GlcNAc) was prepared according to WO98/03524.
as §1, §2

[3] = relative activity with the activity for P1 assumed to be 1
[4] = substrate S, relative value, total of products P1, P2 and P3 by each enzyme = 100%

B1: Fuc-TIX: human Fuc-TIX, 359 amino acids (SEQ ID NO:2), α1,3-fucosyltransferase expressed from pAMo-FT9 in Namalwa cells (protein)
chain: MTSTSKGILRPFLIVCIILGCFMACLLIYIKPTNSWIFSPMESASSVLKMKNFFSTKTDYFNETTILVWVWPFGQTFDLTSCQAMFNIQGCHLTTDRSLYNKSHAVLIHHRDISWDLTNLPQQARPPFQKWIWMNLESPTHTPQKSGIEHLFNLTLTYRRDSDIQVPYGFLTVSTNPFVFEVPSKEKLVCWVVSNWNPEHARVKYYNELSKSIEIHTYGQAFGEYVNDKNLIPTISACKFYLSFENSIHKDYITEKLYNAFLAGSVPVVLGPSRENYENYIPADSFIHVEDYNSPSELAKYLKEVDKNNKLYLSYFNWRKDFTVNLPRFWESHACLACDHVKRHQEYKSVGNLEKWFWN
modifications: human
Enzymatic activity, substrate P1, product P3 [1]: 1.0
Enzymatic activity, substrate S, product P1 [2, 3]: 7.2
Enzymatic activity, substrate S, product P2 [2, 3]: 1.6
Enzymatic activity, substrate S, product P3 [2, 3]: 0.7
Production (%) P1 [2, 4]: 82.7%
Production (%) P2 [2, 4]: 13.4%
Production (%) P3 [2, 4]: 3.9%
